Reference: patent US11491212

B1: FIXa Y259F/K265T/Y345T (protein)
chain 1: not shown
chain 2: not shown
B2: FIXa Y155F/K228N/R318Y/R338E/R403E/E410N (protein)
chain 1: not shown
chain 2: not shown
B3: FIXa D85N/K228N/R318Y/R338E/R403E/E410N (protein)
chain 1: not shown
chain 2: not shown
B4: FIXa I251S/R318Y/R338E/R403E/E410N (protein)
chain 1: not shown
chain 2: not shown
B5: FIXa Y155F/I251S/R318Y/R338E/R403E/E410N (protein)
chain 1: not shown
chain 2: not shown
B6: FIXa I251S/R318Y/R338E/E410N (protein)
chain 1: not shown
chain 2: not shown
B7: FIXa K247N/N249S/R318Y/R338E/R403E/E410N (protein)
chain 1: not shown
chain 2: not shown
B8: FIXa Y155F/K247N/N249S/R318Y/R338E/R403E/E410N (protein)
chain 1: not shown
chain 2: not shown
B9: FIXa A103N/N105S/K247N/N249S/R318Y/R338E/R403E/E410N (protein)
chain 1: not shown
chain 2: not shown
B10: FIXa D104N/K106S/K247N/N249S/R318Y/R338E/R403E/E410N (protein)
chain 1: not shown
chain 2: not shown
B11: FIXa K247N/N249S/R318Y/R338E/E410N (protein)
chain 1: not shown
chain 2: not shown
B12: FIXa Y155F/K247N/N249S/R318Y/R338E/E410N (protein)
chain 1: not shown
chain 2: not shown
B13: FIXa R318Y/R338E/R403E/E410S (protein)
chain 1: not shown
chain 2: not shown
B14: FIXa D104N/K106S/Y155F/K228N/K247N/N249S (protein)
chain 1: not shown
chain 2: not shown

Molecular target: Factor X (FX), P00742
Sequence (P00742 whole entry, looked up): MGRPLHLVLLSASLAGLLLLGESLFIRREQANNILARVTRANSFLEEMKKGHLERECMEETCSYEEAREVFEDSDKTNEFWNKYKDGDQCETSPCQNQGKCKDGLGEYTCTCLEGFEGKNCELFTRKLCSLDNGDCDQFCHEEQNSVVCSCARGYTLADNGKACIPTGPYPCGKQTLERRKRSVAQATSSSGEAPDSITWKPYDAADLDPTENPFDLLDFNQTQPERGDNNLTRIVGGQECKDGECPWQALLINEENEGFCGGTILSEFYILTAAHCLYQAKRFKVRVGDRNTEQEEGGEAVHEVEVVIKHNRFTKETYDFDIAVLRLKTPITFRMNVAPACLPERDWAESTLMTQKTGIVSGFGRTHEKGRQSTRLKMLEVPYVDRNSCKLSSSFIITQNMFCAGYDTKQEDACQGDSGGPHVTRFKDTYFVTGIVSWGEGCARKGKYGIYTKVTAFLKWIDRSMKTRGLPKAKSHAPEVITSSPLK

Protein | KM [µM] | kcat (Catalytic activity of FIXa variants) [s⁻¹] | kcat/KM [M⁻¹ s⁻¹]
B1 | 0.0309 | 1.7 | 
B2 | 0.048 | 9.7 | 2e+08
B3 | 0.0393 | 6 | 
B4 | 0.0334 | 4.8 | 
B5 | 0.0433 | 7.2 | 
B6 | 0.0162 | 6.2 | 3.8e+08
B7 | 0.0392 | 5.8 | 
B8 | 0.0391 | 6.5 | 1.8e+08
B9 | 0.0397 | 4.1 | 1e+08
B10 | 0.059 | 5.2 | 
B11 | 0.0166 | 3.8 | 
B12 | 0.0153 | 4.3 | 3e+08
B13 | 0.0351 | 5.8 | 1.8e+08
B14 | 0.0753 | 4.7 | 
